Where two headings read alike, the source gives them in different places.
Legend:
[1] = biological target: T1, human IL1RAP (human, UniProt Q9NPH3 21-367, limits assumed, biotinylated in the ELISA screens (site not stated)); test: ELISA, antigen titration: Fab (1:5) captured on anti-Fd coat 700 ng/ml (4.7 nM), IL1RAP antigen titrated (the concentration axis is the antigen), SA-HRP 1:4000
T1 construct: also called huIL1RAP; IL1RAP antigen
T1 sequence (looked up): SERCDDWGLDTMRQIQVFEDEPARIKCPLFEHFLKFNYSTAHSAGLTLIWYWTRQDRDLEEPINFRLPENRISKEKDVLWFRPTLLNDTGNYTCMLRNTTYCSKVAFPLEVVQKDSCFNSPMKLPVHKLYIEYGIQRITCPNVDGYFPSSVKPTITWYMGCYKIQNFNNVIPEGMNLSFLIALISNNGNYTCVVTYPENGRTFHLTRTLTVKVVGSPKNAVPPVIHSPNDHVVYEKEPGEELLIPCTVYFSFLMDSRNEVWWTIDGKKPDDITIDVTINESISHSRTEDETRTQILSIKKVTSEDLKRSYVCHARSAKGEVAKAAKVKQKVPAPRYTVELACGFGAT

[2] = biological target: T1, human IL1RAP; test: hKD, method not stated
[3] = biological target: T1, human IL1RAP; test: ELISA: Fab constant (4 nM) captured on Fd coat (67 nM), Biot-hu IL1RAP titrated from 6.8 nM (the concentration axis is the antigen), SA-HRP 1:4000
[4] = biological target: T1, human IL1RAP; test: as above; remark: listed apart in the source

B1: engrafted Fab (GO11 CDRs on IGKV1-39*01 and IGHV1-69*02) (Fab, V domains shown)
VH: QVQLVQSGAEVKKPGSSVKVSCKASGYIFLTYWMNWVRQAPGQGLEWMGQIFPASDSTYYNEMFKDRVTITADKSTSTAYMELSSLRSEDTAVYYCARSGPYSYYAGGYALDYWGQGTLVTVSS
VL: DIQMTQSPSSLSASVGDRVTITCRTSENINSYLAWYQQKPGKAPKLLIYYAKTLAEGVPSRFSGSGSGTDFTLTISSLQPEDFATYYCQHHYGTSLTFGQGTKLEIK
notes: Fab from E. coli periplasmic extract; constant parts not specified; also called HUMANIZED/GRAFT 005-G011 #A1
binding result [1]: binds

B2: CAN04 (antibody, V domains shown)
VH: QVQLQQSGPELLKPGASVKISCKASGYAFSSSWMNWVKQRPGKGLEWIGRIYPGDGNTHYSGKFKGKATLTADKSSSIAYMQLSSLTSEDSAVYFCGEGYLDPMDYWGQGTSVTVSS
VL: DIQMTQTTSSLSASLGDRVTISCSASQGINNYLNWYQQKPDGTVKLLIHYTSGLHAGVPSRFSGSGSGTDYSLTISNLEPEDVATYYCQQYSILPWTFGGGTKLEIKR
Kd [2]: 0.2 nM

B3: IL1RAP G011 chimeric Fab (Fab, V domains shown)
VH: QVHLQQSGPELVRPGTSVKISCEASGYIFLTYWMNWVKQRPGQGLEWIGQIFPASDSTYYNEMFKDKARFTVDKSSSTAYMQFSSLTSEDTAVYFCARSGPYSYYAGGYALDYWGQGTSVTVSS
VL: DIQMTQSPASLSASVGETVTITCRTSENINSYLAWYQQKQGKSPQLLVHYAKTLAEGVPSRFSGSGSGTQFSLKINSLKPEDFGSYYCQHHYGTSLTFGAGTKLELK
notes: Mouse VK and VH fused to human Ck and CH1; expressed in E. coli (periplasmic extract or supernatant); also called mouse Fab; chimeric parent anti-IL1RAP GO11 Fab
EC50 (read off the curve) [3]: ~0.4 nM
EC50 (read off the curve) [4]: ~0.4 nM

— patent US20240317868A1 (Boehringer Ingelheim, published 2024)
